According to the supplement of paper PMC7877785:
± gives the uncertainty stated by the source.

Assay: self-splicing fitness, log relative to wild type (ln ratio); higher = more splicing; Tetrahymena group I intron in knt gene, E. coli kanamycin selection, DiMSum; sequences stand for … in CUCUCU…GGAGGGAAAAGUUAUCAGGCAUGCACCUGGUAGCUAGUCUUUAAACCAAUAGAUUGCAUCGGUUUAAAAGGCAAGACCGUCAAAUUGCGGGAAAGGGGUCAACAGCCGUUCAGUACCAAGUCUCAGGGGAAACUUUGAGAUGGCCUUGCAAAGGGUAUGGUAAUAAGCUGACGGACAUGGUCCUAACCACGCAGCCAAGUCCUAAGUCAACAGAUCUUCUGUUGAUAUGGAUGCAGUUCACAGACUAAAUGUCGGUCGGGGAAGAUGUAUUCUUCUCAUAAGAUAUAGUCGGACCUCUCCUUAAUGGGAGCUAGCGGAUGAAGUGAUGCAACACUGGAGCCGCUGGGAACUAAUUUGUAUGCGAAAGUAUAUUGAUUAGUUUUGGAGUACUCGUGGUCG
Method in brief: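 Library with all eight P1ex-region intron nucleotides randomised, intron inside the knt kanamycin-resistance gene on pET-22b(+), in E. coli BL21(DE3). Cells grew overnight at 37°C or 30°C on LB agar with or without 25 μg/mL kanamycin (plus 100 μg/mL carbenicillin, 50 μM IPTG, 0.2% rhamnose), in six replicate transformations. Pooled colonies were amplicon-sequenced on Illumina HiSeq 2500. DiMSum fitness is the error-weighted combination of wild-type-normalised replicate fold changes, kanamycin versus none.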

Row | Sequence | self-splicing fitness (ln) (30 °C) | self-splicing fitness (ln) (37 °C)
1 | CCCGAGCAAUAUUACGGUAG | -3.16 ± 0.18 | -2.35 ± 0.17
2 | CCCGAGCAAUAUUACGGUCU | -2.83 ± 0.21 | -1.85 ± 0.23
3 | CCCGAGCAAUAUUACGUGCA | -3.5 ± 0.2 | -1.52 ± 0.15
4 | CCCGAGCAAUAUUACGUGCC | -4.31 ± 0.3 | -3.26 ± 0.37
5 | CCCGAGCAAUAUUACGUGGU | -4.96 ± 0.34 | -2.59 ± 0.19
6 | CCCGAGCAAUAUUACGUGUA | -3.33 ± 0.2 | -2.97 ± 0.32
7 | CCCGAGCAAUAUUACGUUAA | -2.82 ± 0.2 | -2.25 ± 0.16
8 | CCCGAGCAAUAUUACGUUGU | -3.46 ± 0.14 | -2.73 ± 0.19
9 | CCCUAGCAAUAUUACGACUU | -3.27 ± 0.23 | -2.7 ± 0.29
10 | CCCUAGCAAUAUUACGAGAU | -3.88 ± 0.22 | -2.91 ± 0.24
11 | CCCUAGCAAUAUUACGAUGG | -3.91 ± 0.2 | -1.79 ± 0.15
12 | CCCUAGCAAUAUUACGCAAU | -3.56 ± 0.23 | -2.02 ± 0.27
13 | CCCUAGCAAUAUUACGCCUG | -3.64 ± 0.23 | -3.11 ± 0.23
14 | CCCUAGCAAUAUUACGCGGU | -3.75 ± 0.16 | -2.53 ± 0.18
15 | CCCUAGCAAUAUUACGCGUU | -3.65 ± 0.19 | -2.72 ± 0.17
16 | CCCUAGCAAUAUUACGCUAC | -2.96 ± 0.34 | -1.84 ± 0.43
17 | CCCUAGCAAUAUUACGCUGC | -3.47 ± 0.32 | 
18 | CCCUAGCAAUAUUACGGAAG | -4.09 ± 0.22 | -2.02 ± 0.19
19 | CCCUAGCAAUAUUACGGACU | -3.48 ± 0.3 | -2 ± 0.32
20 | CCCUAGCAAUAUUACGGAUA |  | -2.73 ± 0.26
21 | CCCUAGCAAUAUUACGGCCC | -3.9 ± 0.27 | -0.5 ± 0.38
22 | CCCUAGCAAUAUUACGGCUC | -4.27 ± 0.23 | -1.75 ± 0.14
23 | CCCUAGCAAUAUUACGGGCG | -1.68 ± 0.089 | -0.597 ± 0.1
24 | CCCUAGCAAUAUUACGGGGA | -3.28 ± 0.23 | -2.41 ± 0.2
25 | CCCUAGCAAUAUUACGGGUC | -3.26 ± 0.14 | -2.65 ± 0.2

Row | Sequence | self-splicing fitness (ln) (30 °C) | self-splicing fitness (ln) (37 °C)
26 | CCCUAGCAAUAUUACGGUGA | -2.53 ± 0.11 | -1.23 ± 0.094
27 | CCCUAGCAAUAUUACGUAGG | -2.61 ± 0.15 | -2.15 ± 0.29
28 | CCCUAGCAAUAUUACGUAUG | -3.75 ± 0.2 | -3.63 ± 0.3
29 | CCCUAGCAAUAUUACGUAUU | -3.8 ± 0.17 | -2.92 ± 0.18
30 | CCGAAGCAAUAUUACGAACC | -3.42 ± 0.48 | 
31 | CCGAAGCAAUAUUACGAAGG | -4.66 ± 0.46 | -2.15 ± 0.27
32 | CCGAAGCAAUAUUACGAAUG | -0.621 ± 0.059 | -0.208 ± 0.076
33 | CCGAAGCAAUAUUACGACCG | -0.936 ± 0.13 | -0.0137 ± 0.17
34 | CCGAAGCAAUAUUACGAGCA | -2.35 ± 0.22 | -2.9 ± 0.36
35 | CCGAAGCAAUAUUACGAGCG | -0.283 ± 0.087 | 0.807 ± 0.1
36 | CCGAAGCAAUAUUACGAUCC | -3.91 ± 0.46 | -2.46 ± 0.45
37 | CCGAAGCAAUAUUACGAUGA | -3.16 ± 0.26 | -2.24 ± 0.19
38 | CCGAAGCAAUAUUACGAUUU | -1.44 ± 0.16 | -2.58 ± 0.24
39 | CCGAAGCAAUAUUACGCAUC | -4.21 ± 0.34 | 
40 | CCGAAGCAAUAUUACGCCCA | -2.41 ± 0.42 | 
41 | CCGAAGCAAUAUUACGCCCG | -0.442 ± 0.13 | 0.42 ± 0.26
42 | CCGAAGCAAUAUUACGCGUG | -3.05 ± 0.14 | -2.56 ± 0.13
43 | CCGAAGCAAUAUUACGCGUU | -4.01 ± 0.16 | -2.4 ± 0.12
44 | CCGAAGCAAUAUUACGCUCA | -3.65 ± 0.33 | -3.47 ± 0.42
45 | CCGAAGCAAUAUUACGGAAC | -2.82 ± 0.28 | -2.03 ± 0.26
46 | CCGAAGCAAUAUUACGGACA |  | -1.57 ± 0.2
47 | CCGAAGCAAUAUUACGGAUA |  | -1.18 ± 0.2
48 | CCGAAGCAAUAUUACGGUGG | -4.27 ± 0.24 | -1.35 ± 0.11
49 | CCGAAGCAAUAUUACGGUGU | -3.91 ± 0.21 | -2.09 ± 0.14
50 | CCGAAGCAAUAUUACGGUUC | -3.74 ± 0.26 | -2.66 ± 0.2
